B1: Tpz1, two-hybrid fusion, wild type (construct limits not stated) [S. pombe] / Ccq1, two-hybrid fusion, wild type (construct limits not stated) [S. pombe] (parent complex)
chain 1: MSNCLKHPWLENGLLNLIKNADVLPIRVFKCQPLQIFEYIRYEHPIRCKLSDTEFYIEAEFSSQSISDLNNFTEKRITSLRGGIVTLGNFLIHLIPSQSGIIPWIQVESFNFQGCEGAVFGNPKAITTSALFNALLQSPYLAALANEFNRSIKEGSSYQEASLSQQEKPNDNTSNSRDIKNNIQFHWKNMTSLSIEECIIPKGQQLILEKESEENTTHGIYLEERKMAQGLHNSVSETPEVKQEDNDEDLDAYSWSSSTDSAGEIPSLPTNRKILEKIAEKPPPFESPLEDDETPDQTNEHEANQVNVSQLPLNPRGSGISGRPVESTEQLNSSLTIERSQSIQSTDSKQRVETQSHRRSKIEIFDAQDELFDRSICTTIDDSTGKLLNAEETPIKTGDLHSTSASSVISCTPPAINFTSDICNEQIELEYKRKPIPDYDFMKGLETTLQELYVEHQSKKRRLELFQLTNNHQKNSEACEMCRLGLPHGSFFELLRDWKKIEEFRNKS
chain 2: MSEINDFTNSIIINESDTKYEVYSEVNSSNRWIAKEDCPSPLEDVWLLKLAGHKRKLEEPLSCMRNEEPASKQREIEKFLRTDLDHSENDFLTQEVDEFPSTQQLFPIPLQNDTAFDSSEESITKSSKSSFSVLDIGLPMSALQRKMMHRLVQYFAFCIDHFCTGPSDSRIQEKIRLFIQSAHNIAKHPSLYDTEVRNPSAAESTNSHVSLDASNFSSYAENSSKFLFLQELFKNLSPSYSKTFFLFISNQFLANTLTQWLKSQNIDAELWAEEDAKTSQHPAIWICVSKKAPSASHFLQSCPDLSATIFYDIEAYMSVTSSLPSIQSLVLRLIHLGSIEHAIKCFQSSYNASFLVNIVGVVATLSSSSEENSEASNLSTLFEKSGNFEEILGSESHSSITEKTRDIAKNVATWLKNGENFSSWPLPPLMDLASLSVAEPRDSQPSVSQVNDTFVKSSDSTFPSSQSMQSPSKLHSLTSNATDLLSSSSLKKNFFSQQEADEVELSNNYDLQGAAVQYLQRRLRMVEDELHEAINSKNVQQSRSEELEQQISKLTDNLQEYRNTVRELKLDLEKSKKKNEDLSKLEVEKVEEIANLKKELTHLAKQQEFGFKYVQEFSNEDLQGKLIEANEKNYKLTQLLKTQKEDADFITNQYQNASTFAAEQSKEVAKLQAECKRLQAINSKVMEEVKVYNDSRVEALLAKVSSLEETLKILEQKSLPKFTPHNQSPRIIDSN

Variants of: B1
Assay: yeast two-hybrid (β-galactosidase); parent: 100; read off a plot

Variant | percent of parent
chain 1 MSNCLKHPWLENGLLNLIKNADVLPIRVFKCQPLQIFEYIRYEHPIRCKLSDTEFYIEAEFSSQSISDLNNFTEKRITSLRGGIVTLGNFLIHLIPSQSGIIPWIQVESFNFQGCEGAVFGNPKAITTSALFNALLQSPYLAALANEFNRSIKEGSSYQEASLSQQEKPNDNTSNSRDIKNNIQFHWKNMTSLSIEECIIPKGQQLILEKESEENTTHGIYLEERKMAQGLHNSVSETPEVKQEDNDEDLDAYSWSSSTDSAGEIPSLPTNRKILEKIAEKPPPFESPLEDDETPDQTNEHEANQVNVSQLPLNPRGSGISGRPVESTEQLNSSLTIERSQSIQSTDSKQRVETQSHRRSKIEIFDAQDELFDRSICTTIDDSTGKLLNAEETPIKTGDLHSTSASSVISCTPPAINFTSDICNEQIELEYKRKPIPAYDFMKGLETTLQELYVEHQSKKRRLELFQLTNNHQKNSEACEMCRLGLPHGSFFELLRDWKKIEEFRNKS [chain 1 D438A] | ~100 % WT
chain 1 MSNCLKHPWLENGLLNLIKNADVLPIRVFKCQPLQIFEYIRYEHPIRCKLSDTEFYIEAEFSSQSISDLNNFTEKRITSLRGGIVTLGNFLIHLIPSQSGIIPWIQVESFNFQGCEGAVFGNPKAITTSALFNALLQSPYLAALANEFNRSIKEGSSYQEASLSQQEKPNDNTSNSRDIKNNIQFHWKNMTSLSIEECIIPKGQQLILEKESEENTTHGIYLEERKMAQGLHNSVSETPEVKQEDNDEDLDAYSWSSSTDSAGEIPSLPTNRKILEKIAEKPPPFESPLEDDETPDQTNEHEANQVNVSQLPLNPRGSGISGRPVESTEQLNSSLTIERSQSIQSTDSKQRVETQSHRRSKIEIFDAQDELFDRSICTTIDDSTGKLLNAEETPIKTGDLHSTSASSVISCTPPAINFTSDICNEQIELEYKAKPIPDYDFMKGLETTLQELYVEHQSKKRRLELFQLTNNHQKNSEACEMCRLGLPHGSFFELLRDWKKIEEFRNKS [chain 1 R433A] | ~90 % WT
chain 1 MSNCLKHPWLENGLLNLIKNADVLPIRVFKCQPLQIFEYIRYEHPIRCKLSDTEFYIEAEFSSQSISDLNNFTEKRITSLRGGIVTLGNFLIHLIPSQSGIIPWIQVESFNFQGCEGAVFGNPKAITTSALFNALLQSPYLAALANEFNRSIKEGSSYQEASLSQQEKPNDNTSNSRDIKNNIQFHWKNMTSLSIEECIIPKGQQLILEKESEENTTHGIYLEERKMAQGLHNSVSETPEVKQEDNDEDLDAYSWSSSTDSAGEIPSLPTNRKILEKIAEKPPPFESPLEDDETPDQTNEHEANQVNVSQLPLNPRGSGISGRPVESTEQLNSSLTIERSQSIQSTDSKQRVETQSHRRSKIEIFDAQDELFDRSICTTIDDSTGKLLNAEETPIKTGDLHSTSASSVISCTPPAINFTSDICNEQIELEYKRKPIPDYDFMKGLETTRQELYVEHQSKKRRLELFQLTNNHQKNSEACEMCRLGLPHGSFFELLRDWKKIEEFRNKS [chain 1 L449R] | ~15 % WT
chain 1 MSNCLKHPWLENGLLNLIKNADVLPIRVFKCQPLQIFEYIRYEHPIRCKLSDTEFYIEAEFSSQSISDLNNFTEKRITSLRGGIVTLGNFLIHLIPSQSGIIPWIQVESFNFQGCEGAVFGNPKAITTSALFNALLQSPYLAALANEFNRSIKEGSSYQEASLSQQEKPNDNTSNSRDIKNNIQFHWKNMTSLSIEECIIPKGQQLILEKESEENTTHGIYLEERKMAQGLHNSVSETPEVKQEDNDEDLDAYSWSSSTDSAGEIPSLPTNRKILEKIAEKPPPFESPLEDDETPDQTNEHEANQVNVSQLPLNPRGSGISGRPVESTEQLNSSLTIERSQSIQSTDSKQRVETQSHRRSKIEIFDAQDELFDRSICTTIDDSTGKLLNAEETPIKTGDLHSTSASSVISCTPPAINFTSDICNEQIELEYKRKPIPDYDAMKGLETTLQELYVEHQSKKRRLELFQLTNNHQKNSEACEMCRLGLPHGSFFELLRDWKKIEEFRNKS [chain 1 F441A] | ~14 % WT
chain 1 MSNCLKHPWLENGLLNLIKNADVLPIRVFKCQPLQIFEYIRYEHPIRCKLSDTEFYIEAEFSSQSISDLNNFTEKRITSLRGGIVTLGNFLIHLIPSQSGIIPWIQVESFNFQGCEGAVFGNPKAITTSALFNALLQSPYLAALANEFNRSIKEGSSYQEASLSQQEKPNDNTSNSRDIKNNIQFHWKNMTSLSIEECIIPKGQQLILEKESEENTTHGIYLEERKMAQGLHNSVSETPEVKQEDNDEDLDAYSWSSSTDSAGEIPSLPTNRKILEKIAEKPPPFESPLEDDETPDQTNEHEANQVNVSQLPLNPRGSGISGRPVESTEQLNSSLTIERSQSIQSTDSKQRVETQSHRRSKIEIFDAQDELFDRSICTTIDDSTGKLLNAEETPIKTGDLHSTSASSVISCTPPAINFTSDICNEQIELEYKRKPIPDYDFMKGRETTLQELYVEHQSKKRRLELFQLTNNHQKNSEACEMCRLGLPHGSFFELLRDWKKIEEFRNKS [chain 1 L445R] | ~14 % WT
chain 1 MSNCLKHPWLENGLLNLIKNADVLPIRVFKCQPLQIFEYIRYEHPIRCKLSDTEFYIEAEFSSQSISDLNNFTEKRITSLRGGIVTLGNFLIHLIPSQSGIIPWIQVESFNFQGCEGAVFGNPKAITTSALFNALLQSPYLAALANEFNRSIKEGSSYQEASLSQQEKPNDNTSNSRDIKNNIQFHWKNMTSLSIEECIIPKGQQLILEKESEENTTHGIYLEERKMAQGLHNSVSETPEVKQEDNDEDLDAYSWSSSTDSAGEIPSLPTNRKILEKIAEKPPPFESPLEDDETPDQTNEHEANQVNVSQLPLNPRGSGISGRPVESTEQLNSSLTIERSQSIQSTDSKQRVETQSHRRSKIEIFDAQDELFDRSICTTIDDSTGKLLNAEETPIKTGDLHSTSASSVISCTPPAINFTSDICNEQIELEYARKPIPDYDFMKGLETTLQELYVEHQSKKRRLELFQLTNNHQKNSEACEMCRLGLPHGSFFELLRDWKKIEEFRNKS [chain 1 K432A] | ~72 % WT
chain 1 MSNCLKHPWLENGLLNLIKNADVLPIRVFKCQPLQIFEYIRYEHPIRCKLSDTEFYIEAEFSSQSISDLNNFTEKRITSLRGGIVTLGNFLIHLIPSQSGIIPWIQVESFNFQGCEGAVFGNPKAITTSALFNALLQSPYLAALANEFNRSIKEGSSYQEASLSQQEKPNDNTSNSRDIKNNIQFHWKNMTSLSIEECIIPKGQQLILEKESEENTTHGIYLEERKMAQGLHNSVSETPEVKQEDNDEDLDAYSWSSSTDSAGEIPSLPTNRKILEKIAEKPPPFESPLEDDETPDQTNEHEANQVNVSQLPLNPRGSGISGRPVESTEQLNSSLTIERSQSIQSTDSKQRVETQSHRRSKIEIFDAQDELFDRSICTTIDDSTGKLLNAEETPIKTGDLHSTSASSVISCTPPAINFTSDICNEQIELEYKRKPIPDYDFMKGLETTLQELRVEHQSKKRRLELFQLTNNHQKNSEACEMCRLGLPHGSFFELLRDWKKIEEFRNKS [chain 1 Y453R] | ~16 % WT
chain 1 MSNCLKHPWLENGLLNLIKNADVLPIRVFKCQPLQIFEYIRYEHPIRCKLSDTEFYIEAEFSSQSISDLNNFTEKRITSLRGGIVTLGNFLIHLIPSQSGIIPWIQVESFNFQGCEGAVFGNPKAITTSALFNALLQSPYLAALANEFNRSIKEGSSYQEASLSQQEKPNDNTSNSRDIKNNIQFHWKNMTSLSIEECIIPKGQQLILEKESEENTTHGIYLEERKMAQGLHNSVSETPEVKQEDNDEDLDAYSWSSSTDSAGEIPSLPTNRKILEKIAEKPPPFESPLEDDETPDQTNEHEANQVNVSQLPLNPRGSGISGRPVESTEQLNSSLTIERSQSIQSTDSKQRVETQSHRRSKIEIFDAQDELFDRSICTTIDDSTGKLLNAEETPIKTGDLHSTSASSVISCTPPAINFTSDICNEQIELEYKRKAIPDYDFMKGLETTLQELYVEHQSKKRRLELFQLTNNHQKNSEACEMCRLGLPHGSFFELLRDWKKIEEFRNKS [chain 1 P435A] | ~65 % WT
chain 1 MSNCLKHPWLENGLLNLIKNADVLPIRVFKCQPLQIFEYIRYEHPIRCKLSDTEFYIEAEFSSQSISDLNNFTEKRITSLRGGIVTLGNFLIHLIPSQSGIIPWIQVESFNFQGCEGAVFGNPKAITTSALFNALLQSPYLAALANEFNRSIKEGSSYQEASLSQQEKPNDNTSNSRDIKNNIQFHWKNMTSLSIEECIIPKGQQLILEKESEENTTHGIYLEERKMAQGLHNSVSETPEVKQEDNDEDLDAYSWSSSTDSAGEIPSLPTNRKILEKIAEKPPPFESPLEDDETPDQTNEHEANQVNVSQLPLNPRGSGISGRPVESTEQLNSSLTIERSQSIQSTDSKQRVETQSHRRSKIEIFDAQDELFDRSICTTIDDSTGKLLNAEETPIKTGDLHSTSASSVISCTPPAINFTSDICNEQIELEYKRKPIPDYDFMKGLETTLQELYVEAQSKKRRLELFQLTNNHQKNSEACEMCRLGLPHGSFFELLRDWKKIEEFRNKS [chain 1 H456A] | ~100 % WT
chain 1 MSNCLKHPWLENGLLNLIKNADVLPIRVFKCQPLQIFEYIRYEHPIRCKLSDTEFYIEAEFSSQSISDLNNFTEKRITSLRGGIVTLGNFLIHLIPSQSGIIPWIQVESFNFQGCEGAVFGNPKAITTSALFNALLQSPYLAALANEFNRSIKEGSSYQEASLSQQEKPNDNTSNSRDIKNNIQFHWKNMTSLSIEECIIPKGQQLILEKESEENTTHGIYLEERKMAQGLHNSVSETPEVKQEDNDEDLDAYSWSSSTDSAGEIPSLPTNRKILEKIAEKPPPFESPLEDDETPDQTNEHEANQVNVSQLPLNPRGSGISGRPVESTEQLNSSLTIERSQSIQSTDSKQRVETQSHRRSKIEIFDAQDELFDRSICTTIDDSTGKLLNAEETPIKTGDLHSTSASSVISCTPPAINFTSDICNEQIELEYKRKPIPDADFMKGLETTLQELYVEHQSKKRRLELFQLTNNHQKNSEACEMCRLGLPHGSFFELLRDWKKIEEFRNKS [chain 1 Y439A] | ~15 % WT

Variants of: B1
Assay: as above
Remark: another data set of the same source

Variant | percent of parent
chain 2 L143R | ~16 % WT
chain 2 M147R | ~13 % WT
chain 2 E221R | ~31 % WT
chain 2 L151R | ~13 % WT
chain 2 P189R | ~13 % WT
chain 2 L177R | ~85 % WT
chain 2 F155R | ~13 % WT
chain 2 I185R | ~13 % WT
